Reference: patent US20140363428A1 (Chugai, published 2014)

What was measured:
[1] = target: T1, soluble human FcRn (human, UniProt P55899 24-297; P61769 21-119); experiment: SPR (Biacore), pH 7.0
T1 construct: Heterodimer of alpha chain and beta2-microglobulin; also called hFcRn

[2] = target: T1, soluble human FcRn; experiment: SPR (Biacore), pH 7.0, 25 C;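 further: antibodies captured on a protein L-coated CM4 chip with human FcRn injected as analyte, KD obtained from ka and kd fitted to sensorgrams, in sodium phosphate buffer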
Procedure: An appropriate amount of protein L (ACTIGEN) was immobilized onto Sensor chip CM4 (GE Healthcare) by the amino coupling method, and the chip was allowed to capture an antibody of interest. Then, diluted FcRn solutions and running buffer (as a reference solution) were injected to allow human FcRn to interact with the antibody captured on the sensor chip. The running buffer used comprised 50 mmol/l sodium phosphate, 150 mmol/l NaCl, and 0.05% (w/v) Tween20 (pH 7.0). FcRn was diluted using each buffer. The chip was regenerated using 10 mmol/l glycine-HCl (pH 1.5). Assays were carried out exclusively at 25 degrees C. The association rate constant ka (1/Ms) and dissociation rate constant kd (1/s), both of which are kinetic parameters, were calculated based on the sensorgrams obtained in the assays, and KD (M) of each antibody for human FcRn was determined from these values. Each parameter was calculated using Biacore T100 Evaluation Software (GE Healthcare).

Kd [1] [nM]	Kd [2] [nM]	Binder
–	36	IgG1-F1434 (antibody) heavy: QVQLQESGPGLVKPSETLSLTCAVSGHSISHDHAWSWVRQPPGEGLEWIGFISYSGITNYNPSLQGRVTISRDNSKNTLYLQMNSLRAEDTAVYYCARSLARTTAMDYWGEGTLVTVSSASTKGPSVFPLAPSSKSTSGGTAALGCLVKDYFPEPVTVSWNSGALTSGVHTFPAVLQSSGLYSLSSVVTVPSSSLGTQTYICNVNHKPSNTKVDKKVEPKSCDKTHTCPPCPAPELRGGPKVFLFPPKPKDTLYISREPEVTCVVVDVSHEDPEVKFNWYVDGVEVHNAKTKPREEQYNSTYRVVSVLEPLHQDWLNGKEYKCKVSNKALPAPIEKTISKAKGQPREPQVYTLPPSRDELTKNQVSLTCLVKGFYPSDIAVEWESNGQPENNYKTTPPVLDSDGSFFLYSKLTVDKSRWQQGNVFSCSVMHEALDYHVTRKELSLSP light: not shown
–	31	IgG1-F1430 (antibody) heavy: QVQLQESGPGLVKPSETLSLTCAVSGHSISHDHAWSWVRQPPGEGLEWIGFISYSGITNYNPSLQGRVTISRDNSKNTLYLQMNSLRAEDTAVYYCARSLARTTAMDYWGEGTLVTVSSASTKGPSVFPLAPSSKSTSGGTAALGCLVKDYFPEPVTVSWNSGALTSGVHTFPAVLQSSGLYSLSSVVTVPSSSLGTQTYICNVNHKPSNTKVDKKVEPKSCDKTHTCPPCPAPELRGGPKVFLFPPKPKDTLYISREPEVTCVVVDVSHEDPEVKFNWYVDGVEVHNAKTKPREEQYNSTYRVVSELTPLHQDWLNGKEYKCKVSNKALPAPIEKTISKAKGQPREPQVYTLPPSRDELTKNQVSLTCLVKGFYPSDIAVEWESNGQPENNYKTTPPVLDSDGSFFLYSKLTVDKSRWQQGNVFSCSVMHEALDYHVTRKELSLSP light: not shown
–	45	IgG1-F1433 (antibody) heavy: QVQLQESGPGLVKPSETLSLTCAVSGHSISHDHAWSWVRQPPGEGLEWIGFISYSGITNYNPSLQGRVTISRDNSKNTLYLQMNSLRAEDTAVYYCARSLARTTAMDYWGEGTLVTVSSASTKGPSVFPLAPSSKSTSGGTAALGCLVKDYFPEPVTVSWNSGALTSGVHTFPAVLQSSGLYSLSSVVTVPSSSLGTQTYICNVNHKPSNTKVDKKVEPKSCDKTHTCPPCPAPELRGGPKVFLFPPKPKDTLYISREPEVTCVVVDVSHEDPEVKFNWYVDGVEVHNAKTKPREEQYNSTYRVVSVLDPLHQDWLNGKEYKCKVSNKALPAPIEKTISKAKGQPREPQVYTLPPSRDELTKNQVSLTCLVKGFYPSDIAVEWESNGQPENNYKTTPPVLDSDGSFFLYSKLTVDKSRWQQGNVFSCSVMHEALDYHVTRKELSLSP light: not shown

The next lines start with the binder.

Binder	Kd [1] [nM]	Kd [2] [nM]
IgG1-F1370 (antibody) heavy: QVQLQESGPGLVKPSETLSLTCAVSGHSISHDHAWSWVRQPPGEGLEWIGFISYSGITNYNPSLQGRVTISRDNSKNTLYLQMNSLRAEDTAVYYCARSLARTTAMDYWGEGTLVTVSSASTKGPSVFPLAPSSKSTSGGTAALGCLVKDYFPEPVTVSWNSGALTSGVHTFPAVLQSSGLYSLSSVVTVPSSSLGTQTYICNVNHKPSNTKVDKKVEPKSCDKTHTCPPCPAPELRGGPKVFLFPPKPKDTLYITREPEVTCVVVDVSHEDPEVKFNWYVDGVEVHNAKTKPREEQYNSTYRVVSVLTVLHQDWLNGKEYKCKVSNKALPAPIEKTISKAKGQPREPQVYTLPPSRDELTKNQVSLTCLVKGFYPSDIAVEWESNGQPENNYKTTPPVLDSDGSFFLYSKLTVDKSRWQQGNVFSCSVMHEALDYHVTKKELSLSP light: not shown	91	91
IgG1-F1378 (antibody) heavy: QVQLQESGPGLVKPSETLSLTCAVSGHSISHDHAWSWVRQPPGEGLEWIGFISYSGITNYNPSLQGRVTISRDNSKNTLYLQMNSLRAEDTAVYYCARSLARTTAMDYWGEGTLVTVSSASTKGPSVFPLAPSSKSTSGGTAALGCLVKDYFPEPVTVSWNSGALTSGVHTFPAVLQSSGLYSLSSVVTVPSSSLGTQTYICNVNHKPSNTKVDKKVEPKSCDKTHTCPPCPAPELRGGPKVFLFPPKPKDTLYISRTPEVTCVVVDVSHEDPEVKFNWYVDGVEVHNAKTKPREEQYNSTYRVVSVLTVLHQDWLNGKEYKCKVSNKALPAPIEKTISKAKGQPREPQVYTLPPSRDELTKNQVSLTCLVKGFYPSDIAVEWESNGQPENNYKTTPPVLDSDGSFFLYSKLTVDKSRWQQGNVFSCSVMHEALHYHTTQKSLSLSP light: not shown	360	360
IgG1-F1379 (antibody) heavy: QVQLQESGPGLVKPSETLSLTCAVSGHSISHDHAWSWVRQPPGEGLEWIGFISYSGITNYNPSLQGRVTISRDNSKNTLYLQMNSLRAEDTAVYYCARSLARTTAMDYWGEGTLVTVSSASTKGPSVFPLAPSSKSTSGGTAALGCLVKDYFPEPVTVSWNSGALTSGVHTFPAVLQSSGLYSLSSVVTVPSSSLGTQTYICNVNHKPSNTKVDKKVEPKSCDKTHTCPPCPAPELRGGPKVFLFPPKPKDTLYISRTPEVTCVVVDVSHEDPEVKFNWYVDGVEVHNAKTKPREEQYNSTYRVVSVLTVLHQDWLNGKEYKCKVSNKALPAPIEKTISKAKGQPREPQVYTLPPSRDELTKNQVSLTCLVKGFYPSDIAVEWESNGQPENNYKTTPPVLDSDGSFFLYSKLTVDKSRWQQGNVFSCSVMHEALHYHFTQKSLSLSP light: not shown	280	280
IgG1-F1416 (antibody) heavy: QVQLQESGPGLVKPSETLSLTCAVSGHSISHDHAWSWVRQPPGEGLEWIGFISYSGITNYNPSLQGRVTISRDNSKNTLYLQMNSLRAEDTAVYYCARSLARTTAMDYWGEGTLVTVSSASTKGPSVFPLAPSSKSTSGGTAALGCLVKDYFPEPVTVSWNSGALTSGVHTFPAVLQSSGLYSLSSVVTVPSSSLGTQTYICNVNHKPSNTKVDKKVEPKSCDKTHTCPPCPAPELRGGPKVFLFPPKPKDTLYITREPEVTCVVVDVSHEDPEVKFNWYVDGVEVHNAKTKPREEQYNSTYRVVSVLTPLHQDWLNGKEYKCKVSNKALPAPIEKTISKAKGQPREPQVYTLPPSRDELTKNQVSLTCLVKGFYPSDIAVEWESNGQPENNYKTTPPVLDSDGSFFLYSKLTVDKSRWQQGNVFSCSVMHEALDYHVTKKELSLSP light: not shown	13	13
IgG1-F1371 (antibody) heavy: QVQLQESGPGLVKPSETLSLTCAVSGHSISHDHAWSWVRQPPGEGLEWIGFISYSGITNYNPSLQGRVTISRDNSKNTLYLQMNSLRAEDTAVYYCARSLARTTAMDYWGEGTLVTVSSASTKGPSVFPLAPSSKSTSGGTAALGCLVKDYFPEPVTVSWNSGALTSGVHTFPAVLQSSGLYSLSSVVTVPSSSLGTQTYICNVNHKPSNTKVDKKVEPKSCDKTHTCPPCPAPELRGGPKVFLFPPKPKDTLYITREPEVTCVVVDVSHEDPEVKFNWYVDGVEVHNAKTKPREEQYNSTYRVVSVLTVLHQDWLNGKEYKCKVSNKALPAPIEKTISKAKGQPREPQVYTLPPSRDELTKNQVSLTCLVKGFYPSDIAVEWESNGQPENNYKTTPPVLDSDGSFFLYSKLTVDKSRWQQGNVFSCSVMHEALDYHVTRKELSLSP light: not shown	110	110
IgG1-F1413 (antibody) heavy: QVQLQESGPGLVKPSETLSLTCAVSGHSISHDHAWSWVRQPPGEGLEWIGFISYSGITNYNPSLQGRVTISRDNSKNTLYLQMNSLRAEDTAVYYCARSLARTTAMDYWGEGTLVTVSSASTKGPSVFPLAPSSKSTSGGTAALGCLVKDYFPEPVTVSWNSGALTSGVHTFPAVLQSSGLYSLSSVVTVPSSSLGTQTYICNVNHKPSNTKVDKKVEPKSCDKTHTCPPCPAPELRGGPKVFLFPPKPKDTLYITREPEVTCVVVDVSHEDPEVKFNWYVDGVEVHNAKTKPREEQYNSTYRVVSVLQVLHADWLNGKEYKCKVSNKALPAPIEKTISKAKGQPREPQVYTLPPSRDELTKNQVSLTCLVKGFYPSDIAVEWESNGQPENNYKTTPPVLDSDGSFFLYSKLTVDKSRWQQGNVFSCSVMHEALDYHVTKKELSLSP light: not shown	37	37
